These results are taken from US20240360217A1.

Experiment [1] has as its target human PD-L1 on tumor cells (human) (UniProt Q9NZQ7). The experiment can be described thus: FACS staining of MDA-MB-231 cells with the control antibody; triplicates.
Experiment [2] has the same target. The experiment can be described thus: FACS staining of HCT116 cells with the control antibody; triplicates.

human PD-L1 on tumor cells (human), sequence (Q9NZQ7 19-290 limits assumed): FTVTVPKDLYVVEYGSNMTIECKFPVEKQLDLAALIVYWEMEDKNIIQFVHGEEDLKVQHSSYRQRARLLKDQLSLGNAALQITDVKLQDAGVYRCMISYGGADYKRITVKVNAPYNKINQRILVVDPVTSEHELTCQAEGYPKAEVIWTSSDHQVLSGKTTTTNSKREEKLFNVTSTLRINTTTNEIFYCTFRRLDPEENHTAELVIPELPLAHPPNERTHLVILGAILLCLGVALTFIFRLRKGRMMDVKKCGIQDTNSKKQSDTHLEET

Consider anti-PD-L1 RG7446 MPDL3280A (antibody), for which the figures for the PD-L1 (MFI) in experiment [1] and in experiment [2] were 74600 MFI and 10900 MFI, respectively.
